Reference: article doi:10.1101/2021.01.21.427566, “Gradual opening of Smc arms in prokaryotic condensin” (bioRxiv, 2021)
Numbering of substitutions follows the chain as printed. Numbers in names are those of the source.

B1: Smc^3S(R643C, E1118Q) (natural protein, B. subtilis, UniProt P51834 1-1186, looked up)
chain: MFLKRLDVIGFKSFAERISVDFVKGVTAVVGPNGSGKSNITDAIRWVLGEQSARSLRGGKMEDIIFAGSDSRKRLNLAEVTLTLDNDDHFLPIDFHEVSVTRRVYRSGESEFLINNQPSRLKDIIDLFMDSGLGKEAFSIISQGKVEEILSSKAEDRRSIFEEAAGVLKYKTRKKKAENKLFETQDNLNRVEDILHELEGQVEPLKIQASIAKDYLEKKKELEHVEIALTAYDIEELHGKWSTLKEKVQMAKEEELAESSAISAKEAKIEDTRDKIQALDESVDELQQVLLVTSEELEKLEGRKEVLKERKKNAVQNQEQLEEAIVQFQQKETVLKEELSKQEAVFETLQAEVKQLRAQVKEKQQALSLHNENVEEKIEQLKSDYFELLNSQASIRNELQLLDDQMSQSAVTLQRLADNNEKHLQERHDISARKAASETEFARIEQEIHSQVGAYRDMQTKYEQKKRQYEKNESALYQAYQYVQQARSKKDMLETMQGDFSGFYQGVKEVLKAKERLGGIRGAVLELISTEQKYETAIEIALGASAQHVVTDDEQSARKAIQYLKQNSFGRATFLPLSVIRDRQLQSRDAETAARHSSFLGVASELVTFDPAYRSVIQNLLGTVLITEDLKGANELAKLLGHCYRIVTLEGDVVNPGGSMTGGAVKKKNNSLLGRSRELEDVTKRLAEMEEKTALLEQEVKTLKHSIQDMEKKLADLRETGEGLRLKQQDVKGQLYELQVAEKNINTHLELYDQEKSALSESDEERKVRKRKLEEELSAVSEKMKQLEEDIDRLTKQKQTQSSTKESLSNELTELKIAAAKKEQASKGEEDNLARLKKELTETELALKEAKEDLSFLTSEMSSSTSGEEKLEEAAKHKLNDKTKTIELIALRRDQRIKLQHGLDTYERELKEMKRLYKQKTTLLKDEEVKLGRMEVELDNLLQYLREEYSLSFEGAKEKYQLETDPEEARKRVKLIKLAIEELGTVNLGSIDEFERVNERYKFLSEQKEDLTEAKNTLFQVIEEMDEEMTKRFNDTFVQIRSHFDQVFRSLFGGGRAELRLTDPNDLLHSGVEIIAQPPGKKLQNLNLLSGGERALTAIALLFSILKVRPVPFCVLDQVEAALDEANVFRFAQYLKKYSSDTQFIVITHRKGTMEEADVLYGVTMQESGVSKVISVKLEETKEFVQ
modifications: MTSL spin label on the engineered cysteine 643
notes: Smc, Bacillus subtilis (Bsu), cysteine-lite Smc^3S background with R643C and Walker B E1118Q; also called Smc^3S(EQ) single cysteine mutant; source: E. coli BL21-Gold (DE3), purified (HiTrap Blue, Heparin, gel filtration)
B2: Smc^3S(D193C) (natural protein, B. subtilis, UniProt P51834 1-1186, looked up)
chain: B1 chain with D193C, C643R, Q1118E
modifications: MTSL spin label on the engineered cysteine 193
notes: Smc, Bacillus subtilis (Bsu), cysteine-lite Smc^3S background with D193C, without E1118Q; also called wild-type Smc (without E1118Q) with D193C; wt Smc; source: E. coli BL21-Gold (DE3), purified (HiTrap Blue, Heparin, gel filtration)
B3: Smc^3SV(Q320C) (natural protein, B. subtilis, UniProt P51834 1-1186, looked up)
chain: B1 chain with Q320C, C643R, C1114V, Q1118E
modifications: engineered cysteine 320 cross-linked with M3M
notes: Smc, Bacillus subtilis (Bsu), cys-free Smc^3SV background with Q320C; also called Q320C at contact 4^N; source: E. coli BL21-Gold (DE3), purified (HiTrap Blue, Heparin, gel filtration without reducing agent)
B4: Smc^3SV(A715C) (natural protein, B. subtilis, UniProt P51834 1-1186, looked up)
chain: B1 chain with C643R, A715C, C1114V, Q1118E
modifications: engineered cysteine 715 cross-linked with M3M
notes: Smc, Bacillus subtilis (Bsu), cys-free Smc^3SV background with A715C; also called A715C at contact 7^C; source: E. coli BL21-Gold (DE3), purified (HiTrap Blue, Heparin, gel filtration without reducing agent)
B5: Smc^3SV(D193C) (natural protein, B. subtilis, UniProt P51834 1-1186, looked up)
chain: B1 chain with D193C, C643R, C1114V, Q1118E
modifications: engineered cysteine 193 cross-linked with M3M
notes: Smc, Bacillus subtilis (Bsu), cys-free Smc^3SV background with D193C; also called D193C at contact 1^N; source: E. coli BL21-Gold (DE3), purified (HiTrap Blue, Heparin, gel filtration without reducing agent)
B6: Smc^3SV(Y944C) (natural protein, B. subtilis, UniProt P51834 1-1186, looked up)
chain: B1 chain with C643R, Y944C, C1114V, Q1118E
modifications: engineered cysteine 944 cross-linked with M3M
notes: Smc, Bacillus subtilis (Bsu), cys-free Smc^3SV background with Y944C; also called Y944C at contact 3^C; source: E. coli BL21-Gold (DE3), purified (HiTrap Blue, Heparin, gel filtration without reducing agent)

Target: the molecule itself
Experiment: EPR-DEER; MTSL-labelled single-cysteine Smc, 5 µM, mixed with ScpA and ScpB (similar trends without ScpAB); apo, or with 1 mM ATP and 10 µM dsDNA40; 50 mM Tris-HCl pH 7.5, 50 mM NaCl, 2 mM MgCl2, 40 % ethylene glycol-d6, 90 % deuterium oxide; shock-frozen, DEER traces at 50 K, Q band; spin-spin distances between the two Smc of a dimer

Binding result, binds:
B1, B2

Target: the molecule itself
Experiment: cross-linking; purified single-cysteine Smc, 30 µM dimers with 600 µM M3M in 50 mM Tris-HCl pH 7.5, 200 mM NaCl, 4 °C overnight; non-reducing SDS-PAGE, Coomassie; reversed by up to 10 mM DTT

Binding result, binds:
B3, B4, B5, B6
